Test results reported in patent publication US20120301473A1 (NORTHWESTERN UNIVERSITY, published 2012).

Key:
[1] = target: untagged recombinant full-length human α-synuclein (human, UniProt P37840 1-140); assay: dot blot
Description: (§1) 45 ng/spot was applied to the nitrocellulose. Total Tau was determined using Tau12. […] Each point represents a minimum of three independent measurements. […] Scale bar is 200 nm. […] Monomeric and dimeric Tau were isolated from the same aggregation reaction. Also included is an electroeluted monomeric sample that was never exposed to AA (−AA). 12 ng/spot was applied to the nitrocellulose.
(§2) For dot blots, samples were spotted directly onto nitrocellulose membranes (44). Both Western and dot blot membranes were blocked with 5% nonfat dry milk in TBS, pH 7.4, and incubated in primary antibodies overnight at 4° C. For dot blots, 0.05% Triton X-100 was added to the TBS solution. The Tau12 (45), TauS (46), Tau7 (47), MOAB-2 (a mouse monoclonal antibody (IgG1) produced in the Binder laboratory what recognizes Aβ40 and −42), and TOC1 mouse monoclonal antibodies were used at 0.0067, 0.01, 0.04, 0.05, and 0.1 μg/ml, respectively. The mouse monoclonal anti-α-synuclein (Chemicon; MAB5320) and rabbit monoclonal anti-β-actin (Cell Signaling Technology; clone 13E5) antibodies were diluted to 1:2000 and 1:1000, respectively. The rabbit polyclonal antibodies R1 (48) and His-probe (Santa Cruz Biotechnology; clone H-15) were used at 0.0075 and 0.5 μg/ml, respectively. […]

[2] = target: T1, recombinant human Aβ42 (rPeptide) (human, UniProt P05067 672-713); assay: dot blot
T1 construct: domain: Aβ42; Tested in the monomeric (unaggregated), oligomeric and filamentous states; also called Aβ Olig; Aβ Fil
T1 sequence (P05067 672-713 limits assumed): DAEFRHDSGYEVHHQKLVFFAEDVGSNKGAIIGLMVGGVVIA
Description: as §1, §2

[3] = target: T2, Tau MTBR construct consisting of residues 244-372 of hTau40 (human, UniProt P10636 561-689); assay: dot blot of AA-assembled construct
T2 construct: Expressed in E. coli from pET-17b; Assembled with AA before the dot blot; not shown: poly-His tag C-terminal to residue 372
T2 sequence (P10636 other isoform, or with tags, fused parts or gaps): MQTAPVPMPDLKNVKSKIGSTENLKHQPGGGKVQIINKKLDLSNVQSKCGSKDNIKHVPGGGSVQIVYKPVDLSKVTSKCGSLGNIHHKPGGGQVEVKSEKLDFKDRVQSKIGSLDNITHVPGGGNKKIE

[4] = target: tau deletion construct Δ209-228 (hTau40), aggregated (human, UniProt P10636 1-758); assay: aggregated deletion construct incubated with the antibody
tau deletion construct Δ209-228 (hTau40), aggregated, sequence (P10636 other isoform, or with tags, fused parts or gaps mutant): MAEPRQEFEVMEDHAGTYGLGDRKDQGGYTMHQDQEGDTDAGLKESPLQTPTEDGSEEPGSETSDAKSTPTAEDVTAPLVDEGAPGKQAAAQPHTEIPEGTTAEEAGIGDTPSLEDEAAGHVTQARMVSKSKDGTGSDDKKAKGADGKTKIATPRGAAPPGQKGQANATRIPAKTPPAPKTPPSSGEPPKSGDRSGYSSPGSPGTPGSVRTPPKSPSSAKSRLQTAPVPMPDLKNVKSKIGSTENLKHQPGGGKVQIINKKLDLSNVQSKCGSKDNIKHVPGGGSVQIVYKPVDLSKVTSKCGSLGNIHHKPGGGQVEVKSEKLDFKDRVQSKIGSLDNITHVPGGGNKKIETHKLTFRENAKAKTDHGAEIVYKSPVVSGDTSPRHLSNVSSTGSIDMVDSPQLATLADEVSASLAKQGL
Description: (§3) Two overlapping tau deletion constructs (Δ209-228 and Δ221-238) were aggregated and incubated with the TOC1 antibody or with the Tau7 antibody. Both were positive for Tau7 which recognizes the last 11 amino acids of tau, but negative for TOC1.

[5] = target: tau deletion construct Δ221-238 (hTau40), aggregated (human, UniProt P10636 1-758); assay: as above
tau deletion construct Δ221-238 (hTau40), aggregated, sequence (P10636 other isoform, or with tags, fused parts or gaps mutant): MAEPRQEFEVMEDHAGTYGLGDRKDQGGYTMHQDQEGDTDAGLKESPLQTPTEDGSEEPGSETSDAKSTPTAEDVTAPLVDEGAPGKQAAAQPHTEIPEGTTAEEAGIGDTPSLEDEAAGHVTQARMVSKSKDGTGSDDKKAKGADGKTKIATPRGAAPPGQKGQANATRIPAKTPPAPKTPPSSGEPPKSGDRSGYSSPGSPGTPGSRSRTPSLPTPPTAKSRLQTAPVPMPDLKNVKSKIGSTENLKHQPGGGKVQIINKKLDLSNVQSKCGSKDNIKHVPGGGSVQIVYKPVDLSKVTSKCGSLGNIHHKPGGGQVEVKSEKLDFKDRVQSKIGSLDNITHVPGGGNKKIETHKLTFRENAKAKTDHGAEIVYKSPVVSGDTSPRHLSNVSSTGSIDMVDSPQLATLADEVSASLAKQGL
Description: as §3

[6] = target: T3, Tau oligomers (hTau40 aggregates <50 nm in length; sucrose gradient Fraction 3) (human, UniProt P10636 1-758); assay: immunogold EM, normalised to poly-His tag labeling of the same preparation
T3 construct: Prefibrillar aggregates of recombinant poly-His tagged hTau40 made with arachidonic acid; The number of chains is not defined; also called oligomeric structures; oligomer fraction
T3 sequence (P10636 other isoform, or with tags, fused parts or gaps limits assumed): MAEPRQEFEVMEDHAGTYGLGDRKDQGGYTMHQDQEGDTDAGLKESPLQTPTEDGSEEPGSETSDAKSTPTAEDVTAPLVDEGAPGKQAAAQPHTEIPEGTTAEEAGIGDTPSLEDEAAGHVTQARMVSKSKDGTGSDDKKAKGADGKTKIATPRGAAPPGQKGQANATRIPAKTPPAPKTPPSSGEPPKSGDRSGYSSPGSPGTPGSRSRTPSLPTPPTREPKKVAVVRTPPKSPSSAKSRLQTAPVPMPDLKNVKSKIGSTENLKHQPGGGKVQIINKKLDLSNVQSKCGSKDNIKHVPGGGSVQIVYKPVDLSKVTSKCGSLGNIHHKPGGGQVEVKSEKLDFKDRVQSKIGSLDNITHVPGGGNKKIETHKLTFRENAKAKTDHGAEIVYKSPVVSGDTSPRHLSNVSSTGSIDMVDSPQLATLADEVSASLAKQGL

B1: Tau oligomeric complex-1 (TOC1) monoclonal antibody (antibody)
heavy: QVQLQQPGAELVMPGASVKLSCKASGYTFTSYWMHWVKQRPGQGLEWIGEIDPSDSYTNYNQKFKGKSTLTVDKSSSTAYMQLSSLTSEDSAVYYCARSGDGSSPWYFDVWGTGTTVTVSSESQSFPNVFPLVSCESPLSDKNLVAMGCLARDFLPSTISFTWNYQNNTEVIQGIRTFPTLRTGGKYLATSQVLLSPKSILEGSDEYLVCKIHYGGKNKDLHVPIPAVAEMNPNVNVFVPPRDGFSGPAPRKSKLICEATNFTPKPITVSWLKDGKLVESGFTTDPVTIENKGSTPQTYKVISTLTISEIDWLNLNVYTCRVDHRGLTFLKNVSSTCAASPSTDILTFTIPPSFADIFLSKSANLTCLVSNLATYETLNISWASQSGEPLETKIKIMESHPNGTFSAKGVASVCVEDWNNRKEFVCTVTHRDLPSPQKKFISKPNEVHKHPPAVYLLPPAREQLNLRESATVTCLVKGFSPADISVQWLQRGQLLPQEKYVTSAPMPEPGAPGFYFTHSILTVTEEEWNSGETYTCVVGHEALPHLVTERTVDKSTGKPTLYNVSLIMSDTGGTCY
light: DVLMTQTPLSLPVSLGDQASISCRSSQSIVHSNGNTYLEWYLQKPGQSPKLLIYKVSNRFSGVPDRFSGSGSGTDFTLKISRVEAEDLGVYYCFQGSHVPRTFGGGTKLEIKRADAAPTVSIFPPSSEQLTSGGASVVCFLNNFYPKDINVKWKIDGSERQNGVLNSWTDQDSKDSTYSMSSTLTLTKDEYERHNSYTCEATHKTSTSPIVKSFNRNEC
notes: Mouse monoclonal of the IgM isotype, purified from hybridoma culture; Raised in Tau null mice against electroeluted B4M cross-linked Tau dimers and boosted with cross-linked oligomers; The light chain protein print marks the leader with a dash; For the heavy chain only the DNA print does (57 nt)
B1: no binding [1]; no binding [2]; no binding [3]. For the same binder, the binding result [4] was “no binding”, the binding result [5] was “no binding” and the “fold preference of immunogold labeling, oligomers over filaments (TOC1:His tag labeling)” value [6] was greater than 7 fold.
